B1: LipY (enzyme)
chain: MVSYVVALPEVMSAAATDVASIGSVVATASQGVAGATTTVLAAAEDEVSAAIAALFSGHGQDYQALSAQLAVFHERFVQALTGAAKGYAAAELANASLLQSEFASGIGNGFATIHQEIQRAPTALAAGFTQVPPFAAAQAGIFTGTPSGAAGFDIASLWPVKPLLSLSALETHFAIPNNPLLALIASDIPPLSWFLGNSPPPLLNSLLGQTVQYTTYDGMSVVQITPAHPTGEYVVAIHGGAFILPPSIFHWLNYSVTAYQTGATVQVPIYPLVQEGGTAGTVVPAMAGLISTQIAQHGVSNVSVVGDSAGGNLALAAAQYMVSQGNPVPSSMVLLSPWLDVGTWQISQAWAGNLAVNDPLVSPLYGSLNGLPPTYVYSGSLDPLAQQAVVLEHTAVVQGAPFSFVLAPWQIHDWILLTPWGLLSWPQINQQLGIAA
notes: LipY, PE protein with a C-terminal triglyceride lipase domain, Mycobacterium tuberculosis; 45 kDa; full length (LipYΔPE ends at residue 437); also called full length LipY; not shown: His tag, C-terminal, kept
B2: PE domain of LipY (domain or fragment)
chain: MVSYVVALPEVMSAAATDVASIGSVVATASQGVAGATTTVLAAAEDEVSAAIAALFSGHGQDYQALSAQLAVFHERFVQALTGAAKGYAAAELANASLLQSEFASGIGNGFATIHQEIQRAPTALAAGFTQVPPFAAAQAGIFTGTPSG
notes: LipY, Mycobacterium tuberculosis, residues 1-149 (PE domain with the linker up to the cleavage site); not shown: His tag, C-terminal, kept

Molecular target: the molecule itself
Assay: SEC; […] (20 mM HEPES pH 7, 100 mM NaCl, 10% glycerol); […]

Protein	binding result
B1	binds
B2	binds

Reference: publication PMC4536007, “Modulation of the Activity of Mycobacterium tuberculosis LipY by Its PE Domain” (PLoS ONE, 2015)
